The values that follow come from PMC6821881 (2019).

In assay [1] the target is ZIKV E protein (GZ01) (Zika virus (strain GZ01)). As to the kind of experiment: ELISA.
Assay [2] addresses T1, ZIKV E DIII protein (residues 301-403) (Zika virus (strain GZ01)).
T1 chain: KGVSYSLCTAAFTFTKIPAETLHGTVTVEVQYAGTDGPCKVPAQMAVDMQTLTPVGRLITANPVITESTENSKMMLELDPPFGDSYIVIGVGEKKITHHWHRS
As to the kind of experiment: ELISA.

Where a chain is given by its changes, count along the chain named.

B1: 2L-1 (antibody, V domains shown)
VH: EVQLVQSGAEVKKPGASVKVSCKASGYTFTSGHTFPSYDINWVRQATGQGLEWMGWMNPNRGNTGYAQKFQGRVTMTRNTSINTAYMELSSLRSEDTAVYYCARVRSGTNYGSYYYYYYGMDVWGQGTTVTVSS
VL: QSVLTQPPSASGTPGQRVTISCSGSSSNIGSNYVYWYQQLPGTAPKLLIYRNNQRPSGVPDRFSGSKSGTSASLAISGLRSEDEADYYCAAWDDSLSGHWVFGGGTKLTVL
Usually EC50 stands for the concentration that produces a half-maximal response. Low values mean greater potency, high ones weaker potency. Take B1: the EC50 in assay [1] and in assay [2] was more than 500 ng/mL throughout.

B2: 2L-11 (antibody, V domains shown)
VH: B1 VH
VL: YSVLTDHPSASGTPGQRVTISCSGSSSNIGSNYVYWYQELPGTAPKLLIYNNNQRPSGVPDRFSGSKSGTSASLAISGLRSEDEAYYYCAAWDDSLSGHWVFGGGTKLTVL
On to B2, for which the EC50 in assay [1] and in assay [2] was more than 500 ng/mL throughout.

B3: 2L-2 (antibody, V domains shown)
VH: B1 VH
VL: B2 VL with Y1Q, D6H, H7R, T13H, S31N, E39Q, N51R, Y86D
With B3, the EC50 in assay [1] was 216 ng/mL; in assay [2] it was 267 ng/mL.

B4: 2L-6 (antibody, V domains shown)
VH: B1 VH
VL: SVLQPQPPSASRHPGQRVTISCLHGSSSNIGNNYVSWYQQLPGTDPKLLIYRNNHAASGVPDRFSGSKSGTSASLAISGLRSEDEADYYCAAWDDSLSGHWVFGGGTKLTVL
Take B4: the figures for the EC50 in assay [1] and in assay [2] were 356 ng/mL and 335 ng/mL, respectively.

B5: 2L-9 (antibody, V domains shown)
VH: B1 VH
VL: B2 VL with Y1S, D6Q, H7P, S27T, V34A, E39Y, N51R, S66F, I76V, Y86D
Take B5: the EC50 in assay [1] and in assay [2] was more than 500 ng/mL in each case.

B6: 2L-3 (antibody, V domains shown)
VH: B1 VH
VL: B2 VL with Y1Q, D6H, H7R, V34G, E39Q, N51R, Y86D
On to B6, for which the EC50 in assay [1] and in assay [2] was more than 500 ng/mL each time.

B7: ZK2B10 (antibody, V domains shown)
VH: B1 VH
VL: SYELTQPPSASGTPGQRVTISCSGSSSNIGNNYVHWYQQLPGSAPKLLIYRNNQRPSGVPDRFSGSKSGTSGSLAISGLRSEDEADYYCASWDDSLSGHWVFGGGTKVTVL
Regarding B7, the EC50 in assay [1] came out at 3.3 ng/mL; in assay [2] it was 7.1 ng/mL.

B8: 2L-8 (antibody, V domains shown)
VH: B1 VH
VL: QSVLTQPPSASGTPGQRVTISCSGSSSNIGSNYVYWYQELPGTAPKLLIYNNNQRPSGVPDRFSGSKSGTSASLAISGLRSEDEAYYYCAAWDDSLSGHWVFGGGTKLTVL
As for B8, the EC50 in assay [1] and in assay [2] was more than 500 ng/mL in each case.

B9: 2H-15 (antibody, V domains shown)
VH: EVQLVQSGAEVKKPGASVKVSCKASGYTFTSYDVNWVRQATGQGLEWMGWMNPNSGNTGYAQKFQGRVTMTRNTSISTAYMELSSLRSEDTAVYYCARVSSGSYYGSYYYYYYGMDVWGQGTTVTVSS
VL: B7 VL
As for B9, the EC50 in assay [1] is 7.5 ng/mL; in assay [2] it was 10 ng/mL.

B10: 2H-10 (antibody, V domains shown)
VH: B9 VH with E1Q, A9V, K19E, K23Q, Y27I, F29S, V34I, T41N
VL: B7 VL
B10: the figures for the EC50 in assay [1] and in assay [2] were 5.2 ng/mL and 11.2 ng/mL, respectively.

B11: 2H-14 (antibody, V domains shown)
VH: B9 VH with E1Q, Q3H, L4A, D33G, V34I
VL: B7 VL
Regarding B11, the EC50 in assay [1] stood at 242 ng/mL; in assay [2] it was 215 ng/mL.

B12: 2H-1 (antibody, V domains shown)
VH: B9 VH with E1Q, V34I
VL: B7 VL
As to B12, the EC50 was 5.3 ng/mL in assay [1] and 3.4 ng/mL in assay [2].

B13: 2H-2 (antibody, V domains shown)
VH: QVQLVQSGAEVKKPGSSVKVSCKASGGTFSSYAISWVRQATGQGLEWMGGIIPIFGTANYAQKFQGRVTITADESTSTAYMELSSLRSEDTAVYYCARVSSGSYYGSYYYYYYGMDVWGQGTTVTVSS
VL: B7 VL
Take B13: the EC50 in assay [1] and in assay [2] was more than 500 ng/mL throughout.

B14: 2H-3 (antibody, V domains shown)
VH: B9 VH with E1Q, A9R, D33E, V34I
VL: B7 VL
On to B14, for which the EC50 in assay [1] came out at 23.7 ng/mL; in assay [2], 39 ng/mL.

B15: 2H-6 (antibody, V domains shown)
VH: B9 VH with M51L, Q62E
VL: B7 VL
Take B15: the values for the EC50 in assay [1] and in assay [2] were 4.6 ng/mL and 3.9 ng/mL, respectively.

B16: 2H-9 (antibody, V domains shown)
VH: B9 VH with A9G, E10K, K12V, K13E, P14L, S31T, V34I
VL: B7 VL
Take B16: the figures for the EC50 in assay [1] and in assay [2] were 4.2 ng/mL and 5.9 ng/mL, respectively.

B17: 2H-4 (antibody, V domains shown)
VH: B9 VH with E1Q, A9R, A24G, V34I, T41P, E89G
VL: B7 VL
Consider B17, for which the EC50 stood at 6.5 ng/mL in assay [1] and 8.4 ng/mL in assay [2].

B18: 2H-5 (antibody, V domains shown)
VH: B9 VH with E1Q, K19N, S31M, V34I, A40T
VL: B7 VL
Consider B18, for which the EC50 worked out at 6.2 ng/mL in assay [1] and 4.8 ng/mL in assay [2].

B19: 2H-16 (antibody, V domains shown)
VH: B9 VH with E1Q, V34I, Y60C
VL: B7 VL
In the case of B19, the EC50 in assay [1] was 5.8 ng/mL; in assay [2] it was 4.1 ng/mL.
